From the supplement of paper PMC11246515
± gives the standard deviation of the averaged measurements.

Test: total protein half-life in vivo (active degradation + dilution); higher = more stable protein
[1] = E. coli NCM3722 delta-clpP, growth: N-lim chemostat, doubling time 6 h
[2] = E. coli NCM3722 delta-hslV, growth: N-lim chemostat, doubling time 6 h
[3] = wild type E. coli NCM3722, growth: N-lim chemostat, doubling time 6 h
[4] = wild type E. coli NCM3722, growth: N-lim chemostat, doubling time 12 h
[5] = wild type E. coli NCM3722, growth: P-lim chemostat, doubling time 6 h
[6] = wild type E. coli NCM3722, growth: P-lim chemostat, doubling time 12 h
[7] = E. coli NCM3722 delta-clpP delta-lon delta-hslV, growth: N-lim chemostat, doubling time 6 h
[8] = E. coli NCM3722 delta-lon, growth: N-lim chemostat, doubling time 6 h
[9] = E. coli NCM3722 delta-smpB, growth: N-lim chemostat, doubling time 6 h
[10] = wild type E. coli NCM3722, growth: C-lim chemostat, doubling time 3 h
[11] = wild type E. coli NCM3722, growth: C-lim chemostat, doubling time 6 h
[12] = wild type E. coli NCM3722, growth: C-lim chemostat, doubling time 12 h

Row | Sequence | total protein half-life in vivo [1] [h] | total protein half-life in vivo [2] [h] | total protein half-life in vivo [3] [h] | total protein half-life in vivo [4] [h] | total protein half-life in vivo [5] [h] | total protein half-life in vivo [6] [h] | total protein half-life in vivo [7] [h] | total protein half-life in vivo [8] [h] | total protein half-life in vivo [9] [h] | total protein half-life in vivo [10] [h] | total protein half-life in vivo [11] [h] | total protein half-life in vivo [12] [h]
1 | MKKPLRQQNRQIISYVPRTEPAPPEHAIKMDSFRDVWMLRGKYVAFVLMGESFLRSPAFTVPESAQRWANQIRQEGEVTE [P0AE60] | 5.19 | 3.87 | 3.66 | 6.6 | 4.26 ± 1.1 | 9.35 |  |  |  |  |  | 
2 | MNNREKEILAILRRNPLIQQNEIADMLQISRSRVAAHIMDLMRKGRIKGKGYILTEQEYCVVVGTINMDIRGMADIRYPQSASHPGTIHCSAGGVGRNIAHNLALLGRDVHLLSVIGDDFYGEMLLEETRRAGVNVSGCVRLHGQSTSTYLAIANRDDQTVLAINDTHLLEQLTPQLLNGSRDLLRHAGVVLADCNLTAEALEWVFTLADEIPVFVDTVSEFKAGKIKHWLAHIHTLKPTLPELEILWGQAITSDADRNTAVNALHQQGVQQLFVYLPDESVYCSEKDGEQFLLTAPAHTTVDSFGADDGFMAGLVYSFLEGYSFRDSARFAVACAAISRASGSLNNPTLSADNALSLVPMV |  |  |  |  |  |  | 5.83 ± 0.3 |  |  |  |  | 
3 | MEQRHITGKSHWYHETQSSTTEYDVLPLVPEAAKVSDPFLLDVILEKETLAPFLSWLDPARVLAVDLFPDQLTVTRSQTFTAYERLSTALTVAQVCGVQRLCNYYSARLTPLPGPDSTRESNHRLAQITQYARQLASSPSIIDNRSRQHLNDVGLTAWDCVIISQIIGFIGFQARTIATFQAYLGHPVRWLPGLEIQNYADASLFADESLRWRSSYEVEKLPEEHTKSSTAELCQLAEILSLHPISLSLLEKLLNSTRGNTQPDNQLAALLCARINGSPACFATCMDSSNEYKKISTLMRKGENEINQWADRHSVERATVQAIQWLTRAPDRFSAAQFSPLLEHEKSSTQIINLLVWSGLCGWINRLKIALGETY | 1.97 ± 0.21 | 1.97 ± 0.55 | 1.31 ± 0.044 | 6.39 ± 6 | 1.32 ± 0.4 | 2.65 ± 0.49 | 6.43 ± 1.4 | 1.26 | 1.07 ± 0.024 | 1.25 ± 0.085 | 1.21 ± 0.12 | 1.93 ± 0.13
4 | MNEHHQPFEEIKLINANGAEQWSARQLGKLLGYSEYRHFIPVLTRAKEACENSGHTIDDHFEEILDMVKIGSNAKRALKDIVLSRYACYLVVQNGDPAKPVIAAGQTYFAIQTRRQELADDEAFKQLREDEKRLFLRNELKEHNKQLVEAAQQAGVATATDFAIFQNHGYQGLYGGLDQKAIHQRKGLKKNQKILDHMGSTELAANLFRATQTEEKLKRDGVNSKQQANTTHFDVGRKVRQTIQELGGTMPEELPTPQVSIKQLENSVKITEKK |  |  |  |  |  |  |  |  |  | 2.12 | 3.02 | 5.87
5 | MTRPIQASLDLQALKQNLSIVRQAATHARVWSVVKANAYGHGIERIWSAIGATDGFALLNLEEAITLRERGWKGPILMLEGFFHAQDLEIYDQHRLTTCVHSNWQLKALQNARLKAPLDIYLKVNSGMNRLGFQPDRVLTVWQQLRAMANVGEMTLMSHFAEAEHPDGISGAMARIEQAAEGLECRRSLSNSAATLWHPEAHFDWVRPGIILYGASPSGQWRDIANTGLRPVMTLSSEIIGVQTLKAGERVGYGGRYTARDEQRIGIVAAGYADGYPRHAPTGTPVLVDGVRTMTVGTVSMDMLAVDLTPCPQAGIGTPVELWGKEIKIDDVAAAAGTVGYELMCALALRVPVVTV | 3.6 ± 0.35 | 3.14 ± 0.1 | 3.6 ± 0.21 | 5.1 ± 0.33 | 6.81 ± 1.4 | 11.9 ± 1.2 | 4.49 ± 0.56 | 3.89 ± 0.29 | 3.37 ± 0.47 | 3.16 ± 0.19 | 6.2 ± 0.25 | 9.9 ± 0.72
6 | MKQIRLLAQYYVDLMMKLGLVRFSMLLALALVVLAIVVQMAVTMVLHGQVESIDVIRSIFFGLLITPWAVYFLSVVVEQLEESRQRLSRLVQKLEEMRERDLSLNVQLKDNIAQLNQEIAVREKAEAELQETFGQLKIEIKEREETQIQLEQQSSFLRSFLDASPDLVFYRNEDKEFSGCNRAMELLTGKSEKQLVHLKPADVYSPEAAAKVIETDEKVFRHNVSLTYEQWLDYPDGRKACFEIRKVPYYDRVGKRHGLMGFGRDITERKRYQDALERASRDKTTFISTISHELRTPLNGIVGLSRILLDTELTAEQEKYLKTIHVSAVTLGNIFNDIIDMDKMERRKVQLDNQPVDFTSFLADLENLSALQAQQKGLRFNLEPTLPLPHQVITDGTRLRQILWNLISNAVKFTQQGQVTVRVRYDEGDMLHFEVEDSGIGIPQDELDKIFAMYYQVKDSHGGKPATGTGIGLAVSRRLAKNMGGDITVTSEQGKGSTFTLTIHAPSVAEEVDDAFDEDDMPLPALNVLLVEDIELNVIVARSVLEKLGNSVDVAMTGKAALEMFKPGEYDLVLLDIQLPDMTGLDISRELTKRYPREDLPPLVALTANVLKDKQEYLNAGMDDVLSKPLSVPALTAMIKKFWDTQDDEESTVTTEENSKSEALLDIPMLEQYLELVGPKLITDGLAVFEKMMPGYVSVLESNLTAQDKKGIVEEGHKIKGAAGSVGLRHLQQLGQQIQSPDLPAWEDNVGEWIEEMKEEWRHDVEVLKAWVAKATKK [P0AEC3] | 6.27 ± 0.077 | 5.797 ± 0.042 | 5.54 ± 0.18 | 10.5 ± 1 | 5.69 ± 0.2 | 11.4 ± 0.22 | 5.863 ± 0.04 | 5.21 ± 0.38 | 5.568 ± 0.012 | 3.09 ± 0.14 | 5.88 ± 0.086 | 10.9 ± 0.17
7 | MLSTQFNRDNQYQAITKPSLLAGCIALALLPSAAFAAPATEETVIVEGSATAPDDGENDYSVTSTSAGTKMQMTQRDIPQSVTIVSQQRMEDQQLQTLGEVMENTLGISKSQADSDRALYYSRGFQIDNYMVDGIPTYFESRWNLGDALSDMALFERVEVVRGATGLMTGTGNPSAAINMVRKHATSREFKGDVSAEYGSWNKERYVADLQSPLTEDGKIRARIVGGYQNNDSWLDRYNSEKTFFSGIVDADLGDLTTLSAGYEYQRIDVNSPTWGGLPRWNTDGSSNSYDRARSTAPDWAYNDKEINKVFMTLKQQFADTWQATLNATHSEVEFDSKMMYVDAYVNKADGMLVGPYSNYGPGFDYVGGTGWNSGKRKVDALDLFADGSYELFGRQHNLMFGGSYSKQNNRYFSSWANIFPDEIGSFYNFNGNFPQTDWSPQSLAQDDTTHMKSLYAATRVTLADPLHLILGARYTNWRVDTLTYSMEKNHTTPYAGLVFDINDNWSTYASYTSIFQPQNDRDSSGKYLAPITGNNYELGLKSDWMNSRLTTTLAIFRIEQDNVAQSTGTPIPGSNGETAYKAVDGTVSKGVEFELNGAITDNWQLTFGATRYIAEDNEGNAVNPNLPRTTVKMFTSYRLPVMPELTVGGGVNWQNRVYTDTVTPYGTFRAEQGSYALVDLFTRYQVTKNFSLQGNVNNLFDKTYDTNVEGSIVYGTPRNFSITGTYQF |  |  |  |  |  |  |  |  |  | 3.33 ± 0.05 |  | > 16
8 | MKRASLLTLTLIGAFSAIQAAWAVDYPLPPTGSRLVGQNQTYTVQEGDKNLQAIARRFDTAAMLILEANNTIAPVPKPGTTITIPSQLLLPDAPRQGIIVNLAELRLYYYPPGENIVQVYPIGIGLQGLETPVMETRVGQKIPNPTWTPTAGIRQRSLERGIKLPPVVPAGPNNPLGRYALRLAHGNGEYLIHGTSAPDSVGLRVSSGCIRMNAPDIKALFSSVRTGTPVKVINEPVKYSVEPNGMRYVEVHRPLSAEEQQNVQTMPYTLPAGFTQFKDNKAVDQKLVDKALYRRAGYPVSVSSGATPAASNAPSVESAQNGEPEQGNMLRVTQ | 5.31 ± 0.28 | 5.75 ± 0.64 | 5.2 ± 0.094 | 9.08 ± 0.15 | 5.28 ± 0.24 | 11.2 ± 1.1 | 5.45 ± 0.37 | 5.59 ± 0.22 | 5.31 ± 0.5 | 3.12 ± 0.47 | 6.04 ± 1.4 | 12.4 ± 2.9
9 | MHPTGPHLGPDVLFRESNMKVTLTFNEQRRAAYRQQGLWGDASLADYWQQTARAMPDKIAVVDNHGASYTYSALDHAASCLANWMLAKGIESGDRIAFQLPGWCEFTVIYLACLKIGAVSVPLLPSWREAELVWVLNKCQAKMFFAPTLFKQTRPVDLILPLQNQLPQLQQIVGVDKLAPATSSLSLSQIIADNTSLTTAITTHGDELAAVLFTSGTEGLPKGVMLTHNNILASERAYCARLNLTWQDVFMMPAPLGHATGFLHGVTAPFLIGARSVLLDIFTPDACLALLEQQRCTCMLGATPFVYDLLNVLEKQPADLSALRFFLCGGTTIPKKVARECQQRGIKLLSVYGSTESSPHAVVNLDDPLSRFMHTDGYAAAGVEIKVVDDARKTLPPGCEGEEASRGPNVFMGYFDEPELTARALDEEGWYYSGDLCRMDEAGYIKITGRKKDIIVRGGENISSREVEDILLQHPKIHDACVVAMSDERLGERSCAYVVLKAPHHSLSLEEVVAFFSRKRVAKYKYPEHIVVIEKLPRTTSGKIQKFLLRKDIMRRLTQDVCEEIE |  |  |  |  |  |  | 7.05 |  |  |  |  | 
10 | MMDNDNSLNKRPTFKRALRNISMTSIFITMMLIWLLLSVTSVLTLKQYAQKNLALTAATMTYSLEAAVVFADGPAATETLAALGQQGQFSTAEVRDKQQNILASWHYTRKDPGDTFSNFISHWLFPAPIIQPIRHNGETIGEVRLTARDSSISHFIWFSLAVLTGCILLASGIAITLTRHLHNGLVEALKNITDVVHDVRSNRNFSRRVSEERIAEFHRFALDFNSLLDEMEEWQLRLQAKNAQLLRTALHDPLTGLANRAAFRSGINTLMNNSDARKTSALLFLDGDNFKYINDTWGHATGDRVLIEIAKRLAEFGGLRHKAYRLGGDEFAMVLYDVQSESEVQQICSALTQIFNLPFDLHNGHQTTMTLSIGYAMTIEHASAEKLQELADHNMYQAKHQRAEKLVR |  |  | 0.877 |  | 1.69 |  | 4.053 ± 0.0067 |  |  |  |  | 
11 | MSNNGSSPLVLWYNQLGMNDVDRVGGKNASLGEMITNLSGMGVSVPNGFATTADAFNQFLDQSGVNQRIYELLDKTDIDDVTQLAKAGAQIRQWIIDTPFQPELENAIREAYAQLSADDENASFAVRSSATAEDMPDASFAGQQETFLNVQGFDAVLVAVKHVFASLFNDRAISYRVHQGYDHRGVALSAGVQRMVRSDLASSGVMFSIDTESGFDQVVFITSAWGLGEMVVQGAVNPDEFYVHKPTLAANRPAIVRRTMGSKKIRMVYAPTQEHGKQVKIEDVPQEQRDIFSLTNEEVQELAKQAVQIEKHYGRPMDIEWAKDGHTGKLFIVQARPETVRSRGQVMERYTLHSQGKIIAEGRAIGHRIGAGPVKVIHDISEMNRIEPGDVLVTDMTDPDWEPIMKKASAIVTNRGGRTCHAAIIARELGIPAVVGCGDATERMKDGENVTVSCAEGDTGYVYAELLEFSVKSSSVETMPDLPLKVMMNVGNPDRAFDFACLPNEGVGLARLEFIINRMIGVHPRALLEFDDQEPQLQNEIREMMKGFDSPREFYVGRLTEGIATLGAAFYPKRVIVRLSDFKSNEYANLVGGERYEPDEENPMLGFRGAGRYVSDSFRDCFALECEAVKRVRNDMGLTNVEIMIPFVRTVDQAKAVVEELARQGLKRGENGLKIIMMCEIPSNALLAEQFLEYFDGFSIGSNDMTQLALGLDRDSGVVSELFDERNDAVKALLSMAIRAAKKQGKYVGICGQGPSDHEDFAAWLMEEGIDSLSLNPDTVVQTWLSLAELKK | 4.47 ± 0.29 | 4.6 ± 0.19 | 4.5 ± 0.17 | 7.03 ± 0.19 | 5.9 ± 0.38 | 11.7 ± 0.34 | 4.83 ± 0.48 | 4.853 ± 0.045 | 4.21 ± 0.38 | 3.08 ± 0.22 | 5.77 ± 0.31 | 10.1 ± 1
12 | MAINFSPKVGEILECNFGNYPVSQNGPFSTTYYDGRIPPEMIKNRLVVVLNGKINGNACIVVPLSTTRDQDKLKRGMHVEIASNVINDLQFFDQQIRWAKADLVQQVSRNRLNRARTYRGYLNQCLPHELVADIQRAVIKSINAISLIN |  |  |  |  | 4.05 | 8.56 ± 0.1 |  |  |  |  | 6.12 | 8.7 ± 2
